The subject of the data set is Escherichia coli TOP10. The data set is described as follows: shrunken log2 fold change of peptide-encoding DNA abundance (4.5 h post-induction vs induction); higher = less antimicrobial activity (less host growth inhibition). As to conditions: time post-induction: 4.5 h; library: site-saturation at positions 5, 18, 19, 20.
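Further: peptides expressed intracellularly from a pBAD plasmid library in pooled LB shake-flask culture, induced with 0.3% L-arabinose, DNA abundance read by NGS, three biological replicates, DESeq2 with apeglm shrinkage.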

With RRIRARPPRLPRPRPRPDRTPRP, the “shrunken log2 fold change” value worked out at 0.192. RRIRERPPRLPRPRPRPPPHPRP: the “shrunken log2 fold change” value amounted to 0.619.

Consider RRIRNRPPRLPRPRPRPYQQPRP, for which the “shrunken log2 fold change” value was -0.388. The value for RRIRVRPPRLPRPRPRPLSDPRP was 0.0263; that for RRIRNRPPRLPRPRPRPQSMPRP was -0.567.

In the case of RRIRPRPPRLPRPRPRPGSGPRP, the “shrunken log2 fold change” value came to 1.05. As for RRIRMRPPRLPRPRPRPYGLPRP, the “shrunken log2 fold change” value is -0.248. The value for RRIRCRPPRLPRPRPRPKNNPRP was -0.188; that for RRIRSRPPRLPRPRPRPHWLPRP was -0.614; that for RRIRQRPPRLPRPRPRPDQLPRP was -0.263. With RRIRCRPPRLPRPRPRPHAVPRP, the “shrunken log2 fold change” value is -0.559. The value for RRIRVRPPRLPRPRPRPLFEPRP was 0.109; that for RRIRMRPPRLPRPRPRPNCKPRP was 0.102; that for RRIRTRPPRLPRPRPRPMPQPRP was -0.134. For RRIRPRPPRLPRPRPRPENAPRP the value was 0.0319; for RRIRLRPPRLPRPRPRPMEVPRP, -0.0152. For RRIRERPPRLPRPRPRPRQSPRP the value was -0.0972; for RRIRQRPPRLPRPRPRPVVIPRP, -0.292.

Regarding RRIRPRPPRLPRPRPRPHYVPRP, the “shrunken log2 fold change” value was -0.348.

For RRIRMRPPRLPRPRPRPNVEPRP, the “shrunken log2 fold change” value was found to be 0.0231.

As for RRIRDRPPRLPRPRPRPDFFPRP, the “shrunken log2 fold change” value is 0.195. Regarding RRIRGRPPRLPRPRPRPLCSPRP, the “shrunken log2 fold change” value was found to be 0.496.

RRIRVRPPRLPRPRPRPEDEPRP: the “shrunken log2 fold change” value stood at 0.138. Regarding RRIRRRPPRLPRPRPRPYTDPRP, the “shrunken log2 fold change” value was -0.0165. The value for RRIRFRPPRLPRPRPRPKSQPRP was -0.0404. In the case of RRIRKRPPRLPRPRPRPMHCPRP, the “shrunken log2 fold change” value is 3.88. Regarding RRIRFRPPRLPRPRPRPDDCPRP, the “shrunken log2 fold change” value turned out to be 0.014. With RRIRQRPPRLPRPRPRPEWRPRP, the “shrunken log2 fold change” value is -0.00139. For RRIRMRPPRLPRPRPRPTAVPRP the value was 1.64. The value for RRIRARPPRLPRPRPRPHYDPRP was -0.0354; that for RRIRFRPPRLPRPRPRPGLAPRP was 0.344. For RRIRLRPPRLPRPRPRPTSIPRP, the “shrunken log2 fold change” value is -0.178.

Turning to RRIRERPPRLPRPRPRPLNVPRP, the “shrunken log2 fold change” value is -0.0706.

Turning to RRIRVRPPRLPRPRPRPQHCPRP, the “shrunken log2 fold change” value was 0.0856.

Regarding RRIRQRPPRLPRPRPRPMSEPRP, the “shrunken log2 fold change” value is 0.0772.

Consider RRIRVRPPRLPRPRPRPNDNPRP, for which the “shrunken log2 fold change” value is -0.481.

As to RRIRHRPPRLPRPRPRPSYDPRP, the “shrunken log2 fold change” value was -0.0244. With RRIRLRPPRLPRPRPRPHNNPRP, the “shrunken log2 fold change” value was -0.847. For the sequence RRIRSRPPRLPRPRPRPFCIPRP, the “shrunken log2 fold change” value is -0.316. The value for RRIRQRPPRLPRPRPRPQIKPRP was -0.498; that for RRIRVRPPRLPRPRPRPDYIPRP was -0.381. The value for RRIRSRPPRLPRPRPRPSICPRP was -0.0672; that for RRIRRRPPRLPRPRPRPDINPRP was -0.243; that for RRIRPRPPRLPRPRPRPAEHPRP was 0.214.

As to RRIRERPPRLPRPRPRPQISPRP, the “shrunken log2 fold change” value was -0.0116.

As for RRIRFRPPRLPRPRPRPEHHPRP, the “shrunken log2 fold change” value is -0.306.

Turning to RRIRQRPPRLPRPRPRPYPLPRP, the “shrunken log2 fold change” value is -0.73.

In the case of RRIRHRPPRLPRPRPRPRQIPRP, the “shrunken log2 fold change” value is -0.0442. As for RRIRTRPPRLPRPRPRPYKDPRP, the “shrunken log2 fold change” value is -0.308. In the case of RRIRCRPPRLPRPRPRPVQQPRP, the “shrunken log2 fold change” value was found to be 0.148.

As for RRIRSRPPRLPRPRPRPTSSPRP, the “shrunken log2 fold change” value is -0.296.

Consider RRIRHRPPRLPRPRPRPQMKPRP, for which the “shrunken log2 fold change” value was -0.553. Regarding RRIRWRPPRLPRPRPRPVLMPRP, the “shrunken log2 fold change” value is -0.0411. With RRIRIRPPRLPRPRPRPQHPPRP, the “shrunken log2 fold change” value was -0.176. Turning to RRIRSRPPRLPRPRPRPGSNPRP, the “shrunken log2 fold change” value is -0.00709.

Regarding RRIRYRPPRLPRPRPRPSDYPRP, the “shrunken log2 fold change” value is -1.34. RRIRGRPPRLPRPRPRPGTRPRP: the “shrunken log2 fold change” value was 0.703. The value for RRIRMRPPRLPRPRPRPRYVPRP was -0.18; that for RRIRLRPPRLPRPRPRPCDEPRP was -0.0824; that for RRIRSRPPRLPRPRPRPADQPRP was 0.58.

As for RRIRRRPPRLPRPRPRPGFDPRP, the “shrunken log2 fold change” value is 0.289. The value for RRIRDRPPRLPRPRPRPDCQPRP was -0.00973; that for RRIRKRPPRLPRPRPRPVIVPRP was -0.0233; that for RRIRCRPPRLPRPRPRPTPNPRP was 0.786. The value for RRIRMRPPRLPRPRPRPWYNPRP was -0.044; that for RRIRWRPPRLPRPRPRPRIQPRP was 0.273.

RRIRPRPPRLPRPRPRPLKFPRP: the “shrunken log2 fold change” value was -0.368.

As for RRIRCRPPRLPRPRPRPEAFPRP, the “shrunken log2 fold change” value came to 0.13.

Take RRIRTRPPRLPRPRPRPNWEPRP: the “shrunken log2 fold change” value turned out to be 0.00854. In the case of RRIRLRPPRLPRPRPRPSMVPRP, the “shrunken log2 fold change” value was -0.665.

On to RRIRLRPPRLPRPRPRPQRIPRP, for which the “shrunken log2 fold change” value is -0.141. Regarding RRIRNRPPRLPRPRPRPWGCPRP, the “shrunken log2 fold change” value was -0.00572.

RRIRFRPPRLPRPRPRPTHSPRP: the “shrunken log2 fold change” value came out at 0.207.

For RRIRRRPPRLPRPRPRPMQMPRP, the “shrunken log2 fold change” value was 0.54.

Regarding RRIRYRPPRLPRPRPRPMWFPRP, the “shrunken log2 fold change” value stood at 0.0169.

Regarding RRIRDRPPRLPRPRPRPRPYPRP, the “shrunken log2 fold change” value came to 0.018.

On to RRIRWRPPRLPRPRPRPGNNPRP, for which the “shrunken log2 fold change” value was determined as 0.1. For RRIRKRPPRLPRPRPRPSIPPRP the value was -1.13; for RRIRARPPRLPRPRPRPSKMPRP, -0.00925; for RRIRARPPRLPRPRPRPNPHPRP, 0.0863. On to RRIRGRPPRLPRPRPRPLKVPRP, for which the “shrunken log2 fold change” value turned out to be 0.271. On to RRIRKRPPRLPRPRPRPMVEPRP, for which the “shrunken log2 fold change” value turned out to be 0.0956.

As to RRIRQRPPRLPRPRPRPYRQPRP, the “shrunken log2 fold change” value was determined as 0.00902. RRIRFRPPRLPRPRPRPKKHPRP: the “shrunken log2 fold change” value was -0.264.

On to RRIRDRPPRLPRPRPRPSVRPRP, for which the “shrunken log2 fold change” value was found to be 0.0325. In the case of RRIRCRPPRLPRPRPRPENNPRP, the “shrunken log2 fold change” value is -0.303. The value for RRIRVRPPRLPRPRPRPKGMPRP was 0.109. Consider RRIRTRPPRLPRPRPRPLVRPRP, for which the “shrunken log2 fold change” value is 0.114. With RRIRQRPPRLPRPRPRPIDPPRP, the “shrunken log2 fold change” value came out at 0.0328. RRIRERPPRLPRPRPRPVEVPRP: the “shrunken log2 fold change” value is -0.209. For RRIRDRPPRLPRPRPRPSLIPRP the value was -0.156.

Values taken from the supplement of paper PMC9112550, “Optimization of the antimicrobial peptide Bac7 by deep mutational scanning” (BMC Biology, 2022).
